# Positions count from the first letter of the chain named. “And” between values parts separate entries of the source, which are not always exact repeats. Equal values may be shown once.
# Experiments:
# Format in all cases: cell-based
# C3aR I421^7.39A = target: T1, C3aR I421^7.39A (Homo sapiens, UniProt Q16581, I421A); test: GloSensor-based cAMP assay, C3aR mutant I421A; conditions: for cAMP response (% Forskolin): I4217.39A, single replicates
# T1 construct: expressed in transfected cells; host or cells: HEK293T
# T1 sequence (Q16581 1-482 I421A): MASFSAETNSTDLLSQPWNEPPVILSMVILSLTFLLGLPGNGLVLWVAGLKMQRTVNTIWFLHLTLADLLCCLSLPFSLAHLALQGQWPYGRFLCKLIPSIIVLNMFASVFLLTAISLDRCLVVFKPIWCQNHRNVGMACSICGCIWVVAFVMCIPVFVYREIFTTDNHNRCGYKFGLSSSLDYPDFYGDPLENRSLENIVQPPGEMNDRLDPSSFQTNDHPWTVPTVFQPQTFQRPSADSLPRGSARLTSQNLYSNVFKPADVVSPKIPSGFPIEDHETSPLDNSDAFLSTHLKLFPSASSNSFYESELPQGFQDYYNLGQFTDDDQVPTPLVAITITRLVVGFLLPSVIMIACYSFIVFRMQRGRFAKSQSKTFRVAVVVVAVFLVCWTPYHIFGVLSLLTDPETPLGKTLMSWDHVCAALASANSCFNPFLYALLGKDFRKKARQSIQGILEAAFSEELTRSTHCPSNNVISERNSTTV
# Protocol: (§1) HEK293T cells were seeded on 6-well plates (NEST) and transfected with pGlosensor™-22F plasmids (Promega) and pcDNA3.1 plasmids encoding C3aR or its mutants an with N-terminal FLAG tag. After 48 h, cells were detached with Accutase solution (Sigma-Aldrich) and washed with PBS, and resuspended in assay buffer (CO2-independent medium with 0.5 mg mL^−1D-luciferin). 100,000–200,000 cells were seeded on 96-well white bottom plates (SPL) and incubated at 37 °C for 45 min followed by 45 min incubation at room temperature. After 90 min of incubation, basal luminescence signals were recorded. In total, 25 μl of test ligand with various concentrations and 1 μM Forskolin (Sigma-Aldrich) were treated to the cells and luminescence signals were measured by Tristar 2 LB 942 multimode reader (Berthold). […] Relative luminescence unit (%) was calculated with the signal of wells treated with vehicle as 0% and the signal of wells treated with 1 μM Forskolin as 100% (DiRaddo et al, [2014]). Nonlinear regression was performed using a three-parameter logistic equation.
# C3aR P99^3.29A = target: T2, C3aR P99^3.29A (Homo sapiens, UniProt Q16581, P99A); test: GloSensor-based cAMP assay, C3aR mutant P99A; conditions: for cAMP response (% Forskolin): P993.29A, single replicates
# T2 construct: expressed in transfected cells; host or cells: HEK293T
# T2 sequence (Q16581 1-482 P99A): T1 sequence (Q16581 1-482 I421A) with P99A, A421I
# Protocol: as §1
# C3aR R161^ECL2A = target: T3, C3aR R161^ECL2A (Homo sapiens, UniProt Q16581, R161A); test: GloSensor-based cAMP assay, C3aR mutant R161A; conditions: R161ECL2A, single replicates
# T3 construct: expressed in transfected cells; host or cells: HEK293T
# T3 sequence (Q16581 1-482 R161A): T1 sequence (Q16581 1-482 I421A) with R161A, A421I
# Protocol: as §1
# [1] = Dunnett's multiple comparisons test, WT minus mutant
substance,measurement,setting,value
"C3a: anaphylatoxin C3a, natural peptide ligand of C3aR (a 77-amino acid peptide), Sigma-Aldrich","Mean Diff. of pIC50, WT vs. I421A",C3aR I421^7.39A; [1],-0.119
same,reduction in ligand-induced signaling vs WT,C3aR I421^7.39A; I421^7.39A mutant,minor effect
same,ΔpIC50 ± SE of Diff.,C3aR I421^7.39A; I421^7.39A relative to WT C3aR,0.12 ± 0.03
same,IC50,"C3aR I421^7.39A; I421^7.39A, dose-response plot, read-out: IC50",2.54 nM
same,pIC50 (Replicate),"C3aR I421^7.39A; I421^7.39A, individual replicates",8.63 and 8.57 and 8.45 and 8.43 and 8.89 and 8.83
same,pIC50 ± SEM (Mean),"C3aR I421^7.39A; I421^7.39A, mean of independent experiments",8.61
same,cAMP response (% Forskolin),C3aR I421^7.39A; Log[C3a (M)] -7,16.32 % Forskolin and 12.05 % Forskolin and 12.43 % Forskolin and 14.57 % Forskolin and 9.51 % Forskolin and 8.99 % Forskolin and 8.25 % Forskolin
same,cAMP response (% Forskolin),C3aR I421^7.39A; Log[C3a (M)] -8,20.11 % Forskolin and 16.00 % Forskolin and 16.82 % Forskolin and 18.52 % Forskolin and 13.73 % Forskolin and 11.22 % Forskolin and 10.34 % Forskolin
same,cAMP response (% Forskolin),C3aR I421^7.39A; Log[C3a (M)] -9,77.07 % Forskolin and 83.92 % Forskolin and 80.09 % Forskolin and 92.33 % Forskolin and 88.01 % Forskolin and 57.33 % Forskolin and 61.66 % Forskolin
same,cAMP response (% Forskolin),C3aR I421^7.39A; Log[C3a (M)] -10,97.12 % Forskolin and 96.88 % Forskolin and 97.52 % Forskolin and 98.66 % Forskolin and 91.65 % Forskolin and 90.54 % Forskolin and 92.28 % Forskolin
same,cAMP response (% Forskolin),C3aR I421^7.39A; Log[C3a (M)] -11,100.24 % Forskolin and 95.23 % Forskolin and 97.32 % Forskolin and 97.61 % Forskolin and 88.75 % Forskolin and 89.55 % Forskolin and 96.90 % Forskolin
same,cAMP response (% Forskolin),C3aR I421^7.39A; Log[C3a (M)] -12,96.20 % Forskolin and 95.22 % Forskolin and 96.06 % Forskolin and 97.86 % Forskolin and 95.09 % Forskolin and 99.13 % Forskolin and 96.01 % Forskolin
same,"Mean Diff. of pIC50, WT vs. P99A",C3aR P99^3.29A; [1],0.364
same,ΔpIC50 ± SE of Diff.,C3aR P99^3.29A; P99^3.29A relative to WT C3aR,-0.36 ± 0.06
same,IC50,"C3aR P99^3.29A; P99^3.29A, dose-response plot, read-out: IC50",6.44 nM
same,pIC50 (Replicate),"C3aR P99^3.29A; P99^3.29A, individual replicates",8.35 and 8.23 and 8.15
same,pIC50 ± SEM (Mean),"C3aR P99^3.29A; P99^3.29A, mean of independent experiments",8.18
same,cAMP response (% Forskolin),C3aR P99^3.29A; Log[C3a (M)] -7,12.82 % Forskolin and 13.55 % Forskolin and 15.36 % Forskolin and 12.84 % Forskolin
same,cAMP response (% Forskolin),C3aR P99^3.29A; Log[C3a (M)] -8,28.00 % Forskolin and 35.91 % Forskolin and 53.45 % Forskolin and 42.74 % Forskolin
same,cAMP response (% Forskolin),C3aR P99^3.29A; Log[C3a (M)] -9,95.96 % Forskolin and 92.86 % Forskolin and 104.37 % Forskolin and 97.87 % Forskolin
same,cAMP response (% Forskolin),C3aR P99^3.29A; Log[C3a (M)] -10,102.35 % Forskolin and 93.68 % Forskolin and 104.69 % Forskolin and 98.88 % Forskolin
same,cAMP response (% Forskolin),C3aR P99^3.29A; Log[C3a (M)] -11,98.97 % Forskolin and 94.82 % Forskolin and 109.09 % Forskolin and 99.84 % Forskolin
same,cAMP response (% Forskolin),C3aR P99^3.29A; Log[C3a (M)] -12,103.44 % Forskolin and 97.11 % Forskolin and 100.69 % Forskolin and 103.75 % Forskolin
same,cAMP response (% Forskolin),C3aR R161^ECL2A; Log[C3a (M)] -7,95.22 % Forskolin and 113.23 % Forskolin and 84.95 % Forskolin
same,cAMP response (% Forskolin),C3aR R161^ECL2A; Log[C3a (M)] -8,93.59 % Forskolin and 100.34 % Forskolin and 90.06 % Forskolin
same,cAMP response (% Forskolin),C3aR R161^ECL2A; Log[C3a (M)] -9,101.94 % Forskolin and 107.61 % Forskolin and 95.04 % Forskolin
same,cAMP response (% Forskolin),C3aR R161^ECL2A; Log[C3a (M)] -10,94.48 % Forskolin and 102.25 % Forskolin and 94.73 % Forskolin
same,cAMP response (% Forskolin),C3aR R161^ECL2A; Log[C3a (M)] -11,103.03 % Forskolin and 121.75 % Forskolin and 96.66 % Forskolin
same,cAMP response (% Forskolin),C3aR R161^ECL2A; Log[C3a (M)] -12,95.52 % Forskolin and 105.32 % Forskolin and 102.35 % Forskolin

# — article PMC12084609, “Structural insights into small-molecule agonist recognition and activation of complement receptor C3aR” (The EMBO Journal, 2025)
